Measurements reported in US5180678A, “Uses of substantially pure interleukin-9 receptor” (Ludwig Institute for Cancer Research, priority 1992, dated 1993).

Assays:
IL-9R [1] = target: T1, IL-9R (Mus musculus, UniProt Q01114); experiment: Competitive binding of radiolabelled rIL-9 to TS1 cells (specificity of IL-9 binding); design: a number of different cell types were tested for the presence of the IL-9R molecule; endogenous in cells; conditions: labelled rIL-9 6.1×10^-10 M, 10^6 TS1 cells, 3 h 4° C., no competitor 4083 ± 16
T1 sequence (Q01114 38-468): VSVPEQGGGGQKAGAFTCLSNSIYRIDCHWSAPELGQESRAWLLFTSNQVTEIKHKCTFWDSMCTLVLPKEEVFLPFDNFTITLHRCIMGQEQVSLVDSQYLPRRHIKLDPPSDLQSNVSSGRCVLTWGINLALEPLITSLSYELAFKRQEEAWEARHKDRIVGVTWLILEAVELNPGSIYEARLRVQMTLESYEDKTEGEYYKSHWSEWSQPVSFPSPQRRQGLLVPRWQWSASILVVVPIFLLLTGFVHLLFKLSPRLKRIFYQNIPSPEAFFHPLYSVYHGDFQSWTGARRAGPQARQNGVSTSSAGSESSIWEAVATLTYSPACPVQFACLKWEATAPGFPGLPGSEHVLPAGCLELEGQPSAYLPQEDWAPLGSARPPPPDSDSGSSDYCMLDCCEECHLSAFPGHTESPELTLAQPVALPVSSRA
Method: In order to test whether the radioactive IL-9 would bind to TS1 cells which are mouse cells, which are IL-9 dependent, a competitive assay was carried out. Specifically, rIL-9 was incubated with TS1 cells in 140 ul of DMEM containing BSA (10 mg/ml) and Na3 N (10 mM). In order to determine the level of binding, a 100 fold excess of "cold", i.e., non-radiolabelledIL-9, was also mixed with the material. The rIL-9 was admixed at 6.1×10^-10 M, for three hours at 4° C., with 10^6 TS1 cells. Bound material was separated from free ligand via centrifugation over a layer of dibutyl and dioctyl phthalate (15:I). In addition, the experiments were repeated using various interleukins, interferon-γ ("INF-γ"), tumor necrosis factor ("TNF"), and granulocyte, macrophage colony stimulating factor ("GM-CSF"). All experiments were carried out in triplicate.

IL-9R [2] = target: T1, IL-9R; experiment: Saturation binding of radiolabelled rIL-9 to TS-1 cells, Scatchard transformation; design: endogenous in cells; host or cells: TS1 cells (mouse, IL-9 dependent)
Method: Experiments were performed to study the saturation binding of rIL-9. In these studies, as depicted in FIGS. 4a and 4b, increasing concentrations of radiolabelled rIL-9 were incubated with TS-1 cells (5×10^6 cells, 4° C. for three hours). This binding assay, as with those described supra. used 140 ul of DMEM containing BSA and Na3 N, also as described supra. Binding plateaued at 1 nM concentration, with half maximal saturation being reached at approximately 100 pM (FIG. 4a).

[3] = radiolabelled rIL-9, 5×10^6 TS-1 cells, 4° C., three hours (FIG. 4a)

IL-1α: interleukin tested as competitor of IL-9 binding
Bound Radioactivity (IL-9R [1]; competitor 8.7 × 10^-8 M): 4232 ± 177 cpm

IL-4: interleukin tested as competitor of IL-9 binding
Bound Radioactivity (IL-9R [1]; competitor 8.0 × 10^-8 M): 4154 ± 156 cpm

IL-5: interleukin tested as competitor of IL-9 binding
Bound Radioactivity (IL-9R [1]; competitor 2.7 × 10^-8 M): 4642 ± 77 cpm

IL-6: interleukin tested as competitor of IL-9 binding
Bound Radioactivity (IL-9R [1]; competitor 6.7 × 10^-8 M): 4751 ± 61 cpm

B1: GM-CSF: granulocyte, macrophage colony stimulating factor tested as competitor of IL-9 binding (protein, UniProt P01587 18-141, looked up)
Granulocyte-macrophage …: APTRSPITVTRPWKHVEAIKEALNLLDDMPVTLNEEVEVVSNEFSFKKLTCVQTRLKIFEQGLRGNFTKLKGALNMTASYYQTYCPPTPETDCETQVTTYADFIDSLKTFLTDIPFECKKPGQK
Bound Radioactivity (IL-9R [1]; competitor 6.4 × 10^-8 M): 4682 ± 63 cpm

B2: rIL-9: recombinant mouse IL-9 from baculovirus infected Sf9 cells, 22-25 kilodaltons; used unlabelled and 125I-labelled (protein, UniProt P15247 19-144, looked up)
Interleukin-9: QRCSTTWGIRDTNYLIENLKDDPPSKCSCSGNVTSCLCLSVPTDDCTTPCYREGLLQLTNATQKSRLLPVFHRVKRIVEVLKNITCPSFSCEKPCNQTMAGNTLSFLKSLLGTFQKTEMQRQKSRP
modifications: 125I-labelled in some uses
notes: recombinant mouse IL-9 from baculovirus infected Sf9 cells, 22-25 kilodaltons; used unlabelled and 125I-labelled
density of IL-9 receptor (IL-9R [2]; Scatchard transformation, 3 runs, TS-1 cells (FIG. 4b)): 3111±565 /cell | Kd (IL-9R [2]; Scatchard transformation, 3 runs, TS-1 cells, single class of receptor (FIG. 4b)): 0.103 ± 0.013 nM | concentration at which binding plateaued (IL-9R [2]; [3]): 1 nM | half maximal saturation (IL-9R [2]; [3]): approximately 100 pM | Bound Radioactivity (IL-9R [1]; competitor 1.2 × 10^-9 M): 733 ± 21 cpm | Bound Radioactivity (IL-9R [1]; competitor 6.1 × 10^-8 M): 80 ± 8 cpm

B3: IFN-γ: interferon-γ tested as competitor of IL-9 binding (protein, UniProt P01579 24-161, looked up)
Interferon gamma: QDPYVKEAENLKKYFNAGHSDVADNGTLFLGILKNWKEESDRKIMQSQIVSFYFKLFKNFKDDQSIQKSVETIKEDMNVKFFNSNKKKRDDFEKLTNYSVTDLNVQRKAIHELIQVMAELSPAAKTGKRKRSQMLFRG
Bound Radioactivity (IL-9R [1]; competitor 2.4 × 10^-8 M): 4944 ± 8 cpm
